The results in this text go back to the supplement of paper PMC10567573.

First the molecules themselves.
B1: CAMK2B (parent)
chain: YQQIKAGAYDFPSPEWDTVTPEAK
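Note: lentivirally expressed fusions sorted by FACS into six bins by GFP to DsRed ratio, PSI derived from sequencing read proportions per bin multiplied by bin number.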

Variants of B1 are the subject of the series. Nature of the series: protein stability index of a GFP-peptide fusion (GPS, HEK-293T) (PSI 1-6); higher = more stable. As to conditions: c terminus: a fixed tail appended.
YQQIKAGAYDFPRPEWDTVTPEAK: the protein stability index was 3.29.

With YQQIKAGAYDFPHPEWDTVTPEAK, the protein stability index was found to be 3.25. In the case of YQQIKAGAYDFPKPEWDTVTPEAK it was 3.4; in that of YQQIKAGAYDFPFPEWDTVTPEAK, 2.79. In the case of YQQIKAGAYDFPTPEWDTVTPEAK it was 3.69; in that of YQQIKAGAYDFPAPEWDTVTPEAK, 3.24; in that of YQQIKAGAYDFPIPEWDTVTPEAK, 3.37. Consider YQQIKAGAYDFPWPEWDTVTPEAK, for which the protein stability index stood at 2.8. With YQQIKAGAYDFPVPEWDTVTPEAK, the protein stability index was found to be 3.18.

On to YQQIKAGAYDFPCPEWDTVTPEAK, for which the protein stability index was 2.74. As to YQQIKAGAYDFPYPEWDTVTPEAK, the protein stability index was found to be 3.6. Consider YQQIKAGAYDFPGPEWDTVTPEAK, for which the protein stability index is 4.11. With YQQIKAGAYDFPDPEWDTVTPEAK, the protein stability index is 4.08.

With YQQIKAGAYDFPQPEWDTVTPEAK, the protein stability index is 2.9. As for YQQIKAGAYDFPNPEWDTVTPEAK, the protein stability index came to 3.69. Next, YQQIKAGAYDFPEPEWDTVTPEAK: 4.12; YQQIKAGAYDFPMPEWDTVTPEAK: 2.75. Next, YQQIKAGAYDFPLPEWDTVTPEAK: 3.29.

On to YQQIKAGFYDFPSPEWDTVTPEAK, for which the protein stability index came to 2.84. Take YQQIKAGHYDFPSPEWDTVTPEAK: the protein stability index amounted to 3.79.

On to YQQIKAGTYDFPSPEWDTVTPEAK, for which the protein stability index worked out at 3.44. As to YQQIKAGQYDFPSPEWDTVTPEAK, the protein stability index was found to be 3.68. As for YQQIKAGLYDFPSPEWDTVTPEAK, the protein stability index amounted to 3.03. Next, YQQIKAGRYDFPSPEWDTVTPEAK: 3.14; YQQIKAGWYDFPSPEWDTVTPEAK: 2.26. Next, YQQIKAGCYDFPSPEWDTVTPEAK: 3.44; YQQIKAGPYDFPSPEWDTVTPEAK: 3.02. With YQQIKAGSYDFPSPEWDTVTPEAK, the protein stability index is 3.75. For YQQIKAGYYDFPSPEWDTVTPEAK, the protein stability index was 3.31. In the case of YQQIKAGVYDFPSPEWDTVTPEAK it was 3.16; in that of YQQIKAGMYDFPSPEWDTVTPEAK, 3.44. With YQQIKAGIYDFPSPEWDTVTPEAK, the protein stability index stood at 3.05. As for YQQIKAGNYDFPSPEWDTVTPEAK, the protein stability index is 3.95.

For the variant YQQIKAGDYDFPSPEWDTVTPEAK, the protein stability index was found to be 3.91. For YQQIKAGEYDFPSPEWDTVTPEAK, the protein stability index stood at 3.95. Next, YQQIKAGKYDFPSPEWDTVTPEAK: 3.66; YQQIKAGGYDFPSPEWDTVTPEAK: 3.61; YQQIKTGAYDFPSPEWDTVTPEAK: 3.62. As to YQQIKMGAYDFPSPEWDTVTPEAK, the protein stability index came to 3.96.

With YQQIKSGAYDFPSPEWDTVTPEAK, the protein stability index turned out to be 3.59. For the variant YQQIKPGAYDFPSPEWDTVTPEAK, the protein stability index is 3.82. Next, YQQIKKGAYDFPSPEWDTVTPEAK: 3.22. Turning to YQQIKWGAYDFPSPEWDTVTPEAK, the protein stability index was found to be 2.28.

For YQQIKGGAYDFPSPEWDTVTPEAK, the protein stability index was determined as 3.13. Next, YQQIKVGAYDFPSPEWDTVTPEAK: 3.12; YQQIKNGAYDFPSPEWDTVTPEAK: 3.44. As for YQQIKCGAYDFPSPEWDTVTPEAK, the protein stability index worked out at 3.37.

Take YQQIKYGAYDFPSPEWDTVTPEAK: the protein stability index amounted to 3.16.

With YQQIKDGAYDFPSPEWDTVTPEAK, the protein stability index was 4.28. Next, YQQIKRGAYDFPSPEWDTVTPEAK: 2.38; YQQIKIGAYDFPSPEWDTVTPEAK: 2.77.

With YQQIKQGAYDFPSPEWDTVTPEAK, the protein stability index was determined as 3.92.

With YQQIKEGAYDFPSPEWDTVTPEAK, the protein stability index turned out to be 4.41.

Regarding YQQIKFGAYDFPSPEWDTVTPEAK, the protein stability index worked out at 2.9.

As for YQQIKLGAYDFPSPEWDTVTPEAK, the protein stability index was 3.09. YQQIKHGAYDFPSPEWDTVTPEAK: the protein stability index is 3.24. In the case of YQQIKAGAYSFPSPEWDTVTPEAK it was 2.39. Next, YQQIKAGAYLFPSPEWDTVTPEAK: 2.4; YQQIKAGAYVFPSPEWDTVTPEAK: 2.41.

Turning to YQQIKAGAYMFPSPEWDTVTPEAK, the protein stability index is 2.7. In the case of YQQIKAGAYWFPSPEWDTVTPEAK it was 2.83; in that of YQQIKAGAYQFPSPEWDTVTPEAK, 2.67. Take YQQIKAGAYCFPSPEWDTVTPEAK: the protein stability index was 2.25. YQQIKAGAYIFPSPEWDTVTPEAK: the protein stability index worked out at 1.99. In the case of YQQIKAGAYEFPSPEWDTVTPEAK it was 3.55; in that of YQQIKAGAYRFPSPEWDTVTPEAK, 2.05; in that of YQQIKAGAYKFPSPEWDTVTPEAK, 2.25.

Take YQQIKAGAYFFPSPEWDTVTPEAK: the protein stability index turned out to be 1.98. Next, YQQIKAGAYGFPSPEWDTVTPEAK: 2.23. On to YQQIKAGAYHFPSPEWDTVTPEAK, for which the protein stability index was 2.54. On to YQQIKAGAYAFPSPEWDTVTPEAK, for which the protein stability index turned out to be 2.72. In the case of YQQIKAGAYYFPSPEWDTVTPEAK it was 1.79. YQQIKAGAYNFPSPEWDTVTPEAK: the protein stability index is 2.52. In the case of YQQIKAGAYTFPSPEWDTVTPEAK it was 2.61. As to YQQIKAGAYPFPSPEWDTVTPEAK, the protein stability index came to 2.7. For the variant YQQIEAGAYDFPSPEWDTVTPEAK, the protein stability index amounted to 4.84.

YQQIWAGAYDFPSPEWDTVTPEAK: the protein stability index stood at 1.95.

As for YQQIQAGAYDFPSPEWDTVTPEAK, the protein stability index was found to be 3.77.

As to YQQILAGAYDFPSPEWDTVTPEAK, the protein stability index was determined as 3.6. On to YQQIDAGAYDFPSPEWDTVTPEAK, for which the protein stability index is 4.39. In the case of YQQIRAGAYDFPSPEWDTVTPEAK it was 3.34; in that of YQQIHAGAYDFPSPEWDTVTPEAK, 3.46. On to YQQIFAGAYDFPSPEWDTVTPEAK, for which the protein stability index came to 3.12. Regarding YQQITAGAYDFPSPEWDTVTPEAK, the protein stability index came to 4. Turning to YQQIGAGAYDFPSPEWDTVTPEAK, the protein stability index stood at 3.88.

Take YQQIMAGAYDFPSPEWDTVTPEAK: the protein stability index was determined as 4.04.

As for YQQINAGAYDFPSPEWDTVTPEAK, the protein stability index was found to be 3.92. YQQIVAGAYDFPSPEWDTVTPEAK: the protein stability index amounted to 3.77.

YQQIAAGAYDFPSPEWDTVTPEAK: the protein stability index was 4.07.

In the case of YQQIYAGAYDFPSPEWDTVTPEAK, the protein stability index was 3.11. With YQQIIAGAYDFPSPEWDTVTPEAK, the protein stability index turned out to be 3.35.

In the case of YQQICAGAYDFPSPEWDTVTPEAK, the protein stability index came to 3.58. Next, YQQISAGAYDFPSPEWDTVTPEAK: 3.64. In the case of YQQIPAGAYDFPSPEWDTVTPEAK, the protein stability index came to 3.71.
